Here are results for one variant from IntAct's records for PubMed 23892082.

To fix the notation:
B1: TIP41-like protein (Homo sapiens), O75663 (parent)
chain: MMIHGFQSSHRDFCFGPWKLTASKTHIMKSADVEKLADELHMPSLPEMMFGDNVLRIQHGSGFGIEFNATDALRCVNNYQGMLKVACAEEWQESRTEGEHSKEVIKPYDWTYTTDYKGTLLGESLKLKVVPTTDHIDTEKLKAREQIKFFEEVLLFEDELHDHGVSSLSVKIRVMPSSFFLLLRFFLRIDGVLIRMNDTRLYHEADKTYMLREYTSRESKISSLMHVPPSLFTEPNEISQYLPIKEAVCEKLIFPERIDPNPADSQKSTQVE

Variants of B1 are the subject of this assay. Particulars: with pp2aa_rat Ppp2ca.
For MMIHGFQSSHRDFCFGPWKLTASKTHIMKSADVEKLADELHMPSLPEMMFGDNVLRIQHGSGFGIEFNATLALRCVNNYQGMLKVACAEEWQESRTEGEHSKEVIKPYDWTYTTDYKGTLLGESLKLKVVPTTDHIDTEKLKAREQIKFFEEVLLFEDELHDHGVSSLSVKIRVMPSSFFLLLRFFLRIDGVLIRMNDTRLYHEADKTYMLREYTSRESKISSLMHVPPSLFTEPNEISQYLPIKEAVCEKLIFPERIDPNPADSQKSTQVE [D71L], the “effect of a mutation on the interaction” value is reported as “disrupting interaction”.
